Patent US20050112126A1 (Genentech, published 2005)
Values joined by “and” are separate entries in the source; they are usually repeats but may differ in a detail not shown here. Equal values may be shown once. Read-outs that look alike come from different tables or passages of the source. Blank lines part the entries; values can stand above or below the binder they belong to.

Key:
VEGF [1] = target: T1, VEGF (human, UniProt P15692-4 27-191, limits assumed); assay: competition ELISA (biotinylated VEGF to KDR-IgG)
T1 construct: Biotinylated in the KDR-IgG ELISA, amine-coupled to the chip in BIAcore; also called biotinylated VEGF; vascular endothelial growth factor

VEGF [2] = target: T1, VEGF; assay: competition ELISA (biotinylated VEGF to KDR-IgG); remark: listed apart in the source
Method: (§1) Standards (6.9-440 ng/ml chimeric F(ab)) and two-fold serial of samples were incubated with 2 nM biotinylated VEGF for 1 h in tubes. The solutions from the tubes were then transferred to the ELISA plates and incubated for 1 h. […] Titration curves were fit with a four-parameter nonlinear regression curve-fitting program (KaleidaGraph, Synergy Software, Reading Pa.). […] Assays for full-length IgG were the same as for the F(ab)s except that the assay buffer contained 10% human serum.

VEGF [3] = target: T1, VEGF; assay: BIAcore-2000 SPR, relative to Y0192
Method: (§2) BIAcore Analysis: The VEGF-binding affinities of Fab fragments were calculated from association and dissociation rate constants measured using a BIAcore-2000™ surface plasmon resonance system (BIAcore, Inc., Piscataway, N.J.). A biosensor chip was activated for covalent coupling of VEGF using N-ethyl-N′-(3-dimethylaminopropyl)-carbodiimide hydrochloride (EDC) and N-hydroxysuccinimide (NHS) according to the supplier's (BIAcore, Inc., Piscataway, N.J.) instructions. VEGF was buffered exchanged into 20 mM sodium acetate, pH 4.8 and diluted to approximately 50 μg/mL. An aliquot (35 μL) was injected at a flow rate of 2 μL/min to achieve approximately 700-1400 response units (RU) of coupled protein. Finally, 1 M ethanolamine was injected as a blocking agent.
(§3) For kinetics measurements, two-fold serial dilutions of Fab were injected in PBS/TWEEN™ buffer (0.05% TWEEN 20™ in phosphate buffered saline) at 25° C. at a flow rate of 10 μL/min. […] Equilibrium dissociation constants, Kd's from surface plasmon resonance (SPR) measurements were calculated as koff/kon.

VEGF [4] = target: T1, VEGF; assay: BIAcore-2000 SPR, Fab over immobilized VEGF, 25 C
Method: as §2, §3
Target sequence in this assay (P15692 other isoform, or with tags, fused parts or gaps limits assumed): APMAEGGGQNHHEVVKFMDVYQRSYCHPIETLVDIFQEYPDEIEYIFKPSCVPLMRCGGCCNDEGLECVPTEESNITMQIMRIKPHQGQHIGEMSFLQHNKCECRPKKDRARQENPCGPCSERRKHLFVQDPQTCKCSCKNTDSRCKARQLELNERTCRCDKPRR

VEGF [5] = target: T1, VEGF; assay: BIAcore-2000 SPR, Fab over immobilized VEGF, 25 C; off-rate near detection limit
Method: as §2, §3

rhVEGF165 [6] = target: T2, rhVEGF165 (human, UniProt P15692 27-191); assay: cell-based or functional assay
rhVEGF165 [7] = target: T2, rhVEGF165; assay: cell-based or functional assay; remark: listed apart in the source
VEGF [8] = target: T1, VEGF; assay: BIAcore SPR, F(ab) over immobilized VEGF
Text: (§4) BIAcore™ Biosensor Assay: VEGF binding of the humanized and chimeric F(ab)s were compared using a BIAcore™ biosensor (Karlsson et al. Methods: A Comparison to Methods in Enzymology 6:97-108 (1994)). […] VEGF was coupled to a CM-5 biosensor chip through primary amine groups according to manufacturer's instructions (Pharmacia). […] Data points from 0-4500 sec were used for off-rate kinetic analysis. The dissociation rate constant (koff) was obtained from the slope of the plot of ln(R0/R) versus time, where R0 is the signal at t=0 and R is the signal at each time point.
(§5) The slope, Kₛ, was obtained from the plot of ln(−dR/dt) versus time for each F(ab) concentration using the BIAcore™ kinetics evaluation software as described in the Pharmacia Biosensor manual. R is the signal at time t. […] The association rate constant (kₒₙ) was obtained from the slope of the plot of Kₛ versus F(ab) concentration. At the end of each cycle, bound F(ab) was removed by injecting 5 μl of 50 mM HCl at a flow rate of 20 μl/min to regenerate the chip.

VEGF121 = target: T3, VEGF121 (human, UniProt P15692 27-147); assay: BIAcore SPR, Fab over immobilized VEGF121
T3 construct: mature; Immobilized on the biosensor chip via primary amino groups; also called Purified VEGF121
T3 sequence (looked up): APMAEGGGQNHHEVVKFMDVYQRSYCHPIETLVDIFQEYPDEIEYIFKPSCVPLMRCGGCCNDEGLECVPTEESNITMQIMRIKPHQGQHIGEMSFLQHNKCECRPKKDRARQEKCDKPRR
Method: VEGF₁₂₁ was covalently immobilized on the biosensorchip via primary amino groups. Binding of humanized A4.6.1 Fab variants was measured by flowing solutions of Fab in PBS/0.05% TWEEN 20™ over the chip at a flow rate of 20 μL/min. Following each binding measurement, residual Fab was stripped from the immobilized ligand by washing with 5 μL of 50 mM aqueous HCl at 3 μL/min. Binding profiles were analyzed by nonlinear regression using a simple monovalent binding model (BIAevaluation software v2.0; Pharmacia).

VEGF [9] = target: T1, VEGF; assay: BIAcore SPR, F(ab) over immobilized VEGF, koff/kon
Text: as §4, §5

VEGF [10] = target: T1, VEGF; assay: competition ELISA (biotinylated VEGF to KDR-IgG), 10% human serum
Method: as §1

B1: F(ab)-1 (Fab, V domains shown)
VH: EVQLVESGGGLVQPGGSLRLSCAASGYTFTNYGMNWVRQAPGKGLEWVGWINTYTGEPTYAADFKRRFTISRDNSKNTLYLQMNSLRAEDTAVYYCARYPHYYGSSHWYFDVWGQGTLVTVSS
VL: DIQMTQSPSSLSASVGDRVTITCSASQDISNYLNWYQQKPGKAPKLLIYFTSSLHSGVPSRFSGSGSGTDFTLTISSLQPEDFATYYCQQYSTVPWTFGQGTKVEIK
EC50 F(ab)-X / EC50 chimeric F(ab) (VEGF [1]): > 1350
fold reduction of binding affinity from the chimeric F(ab) (VEGF [1]): > 1000 fold

B2: F(ab)-8 (Fab, V domains shown)
VH: EVQLVESGGGLVQPGGSLRLSCAASGYTFTNYGMNWVRQAPGKGLEWVGWINTYTGEPTYAADFKRRFTFSLDTSKNTAYLQMNSLRAEDTAVYYCARYPHYYGSSHWYFDVWGQGTLVTVSS
VL: DIQMTQSPSSLSASVGDRVTITCSASQDISNYLNWYQQKPGKAPKVLIYFTSSLHSGVPSRFSGSGSGTDFTLTISSLQPEDFATYYCQQYSTVPWTFGQGTKVEIK
notes: F(ab)-5 with IleH69Phe and LeuH78Ala; Kabat numbers; Fab with human CH1 and CL
EC50 F(ab)-X / EC50 chimeric F(ab) (VEGF [2]): 9.6 ratio
fold improvement in binding vs F(ab)-5 (VEGF [2]): 8 fold

B4: Y0238-3 (Fab, V domains shown)
VH: EVQLVESGGGLVQPGGSLRLSCAASGYTFTNYGINWVRQAPGKGLEWVGWINTYTGEPTYAADFKRRFTFSLDTSKSTAYLQMNSLRAEDTAVYYCAKYPYYYGTSHWYFDVWGQGTL
VL: DIQLTQSPSSLSASVGDRVTITCRANEQLSNYLNWYQQKPGKAPKVLIYFTSSLHSGVPSRFSGSGSGTDFTLTISSLQPEDFATYYCQQYSTVPWTFGQGTKVEIKR
notes: Soluble Fab
Kd (wt)/Kd (mut) (VEGF [3]): ≥ 14 ratio
Kd (VEGF [4]): ≤ 0.2 nM
kon (VEGF [4]): 17000 M⁻¹ s⁻¹
koff (VEGF [5]): ≤ 4e-06 s⁻¹

B6: Y0238-7 (Fab, V domains shown)
VH: EVQLVESGGGLVQPGGSLRLSCAASGYTFTNYGINWVRQAPGKGLEWVGWINTYTGEPTYAADFKRRFTFSLDTSKSTAYLQMNSLRAEDTAVYYCAKYPYYWGTSHWYFDVWGQGTL
VL: DIQLTQSPSSLSASVGDRVTITCRANEQLSNYLNWYQQKPGKAPKVLIYFTSSLHSGVPSRFSGSGSGTDFTLTISSLQPEDFATYYCQQYSTVPWTFGQGTKVEIKR
notes: From library YC-81 on the pY0192 template; Soluble Fab
Kd (wt)/Kd (mut) (VEGF [3]): ≥ 7.3 ratio
Kd (VEGF [4]): ≤ 0.4 nM
kon (VEGF [4]): 15000 M⁻¹ s⁻¹
koff (VEGF [5]): ≤ 6e-06 s⁻¹

B7: chimeric F(ab) (Fab, V domains shown)
VH: EIQLVQSGPELKQPGETVRISCKASGYTFTNYGMNWVKQAPGKGLKWMGWINTYTGEPTYAADFKRRFTFSLETSASTAYLQISNLKNDDTATYFCAKYPHYYGSSHWYFDVWGAGTTVTVSS
VL: DIQMTQTTSSLSASLGDRVIISCSASQDISNYLNWYQQKPDGTVKVLIYFTSSLHSGVPSRFSGSGSGTDYSLTISNLEPEDIATYYCQQYSTVPWTFGGGTKLEIKR
notes: also called chim-F(ab); A4.6.1 chimera
koff (VEGF [8]): 5.9e-05 s⁻¹
kon (VEGF [8]): 65000 M⁻¹ s⁻¹
Kd (VEGF121): 1.6 nM
koff (VEGF121): 8.5e-05 s⁻¹
kon (VEGF121): 54000 M⁻¹ s⁻¹
EC50 (VEGF [2]): 0.049 µg/mL and 1 nM
EC50 F(ab)-X / EC50 chimeric F(ab) (VEGF [2]): 1 ratio
Kd (VEGF [9]): 0.91 nM

Second part, the binder after the results:

EC50 F(ab)-X / EC50 chimeric F(ab) (VEGF [2]): > 150 ratio
fold reduction in binding vs F(ab)-8 (VEGF [2]): 15 fold
B3: F(ab)-9 (Fab, V domains shown)
VH: EVQLVESGGGLVQPGGSLRLSCAASGYTFTNYGMNWVRQAPGKGLEWVAWINTYTGEPTYAADFKRRFTFSLDTSKNTAYLQMNSLRAEDTAVYYCARYPHYYGSSHWYFDVWGQGTLVTVSS
VL: DIQMTQSPSSLSASVGDRVTITCSASQDISNYLNWYQQKPGKAPKVLIYFTSSLHSGVPSRFSGSGSGTDFTLTISSLQPEDFATYYCQQYSTVPWTFGQGTKVEIK
notes: F(ab)-8 with GlyH49Ala; Kabat numbers; Fab with human CH1 and CL

fold potency over the wild-type Fab (Y0192), inhibition of VEGF-induced HuVEC growth (rhVEGF165 [6]): > 30 fold
IC50 (read off the curve) (rhVEGF165 [7]): ~0.5 nM
Kd (wt)/Kd (mut) (VEGF [3]): ≥ 20 ratio
Kd (VEGF [4]): ≤ 0.15 nM
kon (VEGF [4]): 35000 M⁻¹ s⁻¹
koff (VEGF [5]): ≤ 5.4e-06 s⁻¹
B5: Y0313-1 (Fab, V domains shown)
VH: EVQLVESGGGLVQPGGSLRLSCAASGYDFTHYGMNWVRQAPGKGLEWVGWINTYTGEPTYAADFKRRFTFSLDTSKSTAYLQMNSLRAEDTAVYYCAKYPYYYGTSHWYFDVWGQGTL
VL: DIQLTQSPSSLSASVGDRVTITCRANEQLSNYLNWYQQKPGKAPKVLIYFTSSLHSGVPSRFSGSGSGTDFTLTISSLQPEDFATYYCQQYSTVPWTFGQGTKVEIKR
notes: Soluble Fab; Y0243-1 with VH3 H101Y and S105T

IgG1/chIgG1 (EC50 ratio) (VEGF [10]): 0.759 ratio
B8: muMAb VEGF A.4.6.1 (antibody, V domains shown)
VH: EIQLVQSGPELKQPGETVRISCKASGYTFTNYGMNWVKQAPGKGLKWMGWINTYTGEPTYAADFKRRFTFSLETSASTAYLQISNLKNDDTATYFCAKYPHYYGSSHWYFDVWGAGTTVTVSS
VL: DIQMTQTTSSLSASLGDRVIISCSASQDISNYLNWYQQKPDGTVKVLIYFTSSLHSGVPSRFSGSGSGTDYSLTISNLEPEDIATYYCQQYSTVPWTFGGGTKLEIKR
notes: Original murine IgG1 antibody purified from ascites; also called murIgG1; murine mAb A4.6.1

EC50 (VEGF [10]): 0.113 µg/mL and 0.75 nM
IgG1/chIgG1 (EC50 ratio) (VEGF [10]): 1 ratio
B9: chIgG1 (antibody, V domains shown)
VH: EIQLVQSGPELKQPGETVRISCKASGYTFTNYGMNWVKQAPGKGLKWMGWINTYTGEPTYAADFKRRFTFSLETSASTAYLQISNLKNDDTATYFCAKYPHYYGSSHWYFDVWGAGTTVTVSS
VL: DIQMTQTTSSLSASLGDRVIISCSASQDISNYLNWYQQKPDGTVKVLIYFTSSLHSGVPSRFSGSGSGTDYSLTISNLEPEDIATYYCQQYSTVPWTFGGGTKLEIKR
notes: Murine A4.6.1 VL and VH fused to human kappa CL and human IgG1 heavy chain constant domains; also called chimeric IgG1
